Measurements from patent publication US9102755B2, “Highly stabilized epidermal growth factor mutants” (PnP Biopharm Co., Ltd., priority 2013, dated 2015).
“Also recorded” adds a separate entry of the source.

Columns and labels:
[1] = Solubility of wild-type and mutant EGFs in 20 mM sodium phosphate (pH 5.5); type: physicochemical; details: for Solubility: 1 mg in 1 ml 20 mM sodium phosphate pH 5.5, supernatant, Bradford and UV method; for Solubility (Comparison with wild-type %): 20 mM sodium phosphate pH 5.5, relative to wild-type EGF
Protocol: 1 mg of the respective wild-type and mutant EGFs prepared was dissolved in 1 ml of 20 mM sodium phosphate (pH 5.5 that is the similarly pH environment as cosmetics). In order to remove undissolved EGF, the mixture thus obtained was centrifuged and then supernatant was obtained. The concentration of the supernatant thus obtained was measured by using a Bradford method and UV method.

[2] = Circular dichroism after incubation at 60° C.; type: physicochemical; details: for Percentage to wild-type EGF (CD signal value at 200 nm): 0.3 mg/ml, 20 mM sodium phosphate pH 5.5, 60° C., five days
Protocol: The stabilities of wild-type EGF and mutants should be confirmed through being stored at room temperature for a long period of time, but there is a disadvantage in that the time is too long. Therefore, the incubation test was performed at extreme environment for a short period of time. 0.3 mg/ml of each of the wild-type EGF and mutants was dissolved in 20 mM sodium phosphate (pH 5.5), and then subjected to the incubation in a water bath of 60° C. The sampling was performed per 24 hours unit, and then centrifuged at 13000 rpm and 4° C. for 15 minutes to collect the supernatant. The supernatant was diluted with 20 mM sodium phosphate (pH 5.5), and its structure was measured by using a circular dichroism. And then, the supernatant was added to 0.1 cm cell, and its structure was analyzed under the conditions of, in a region of 190 nm to 250 nm, band width 1 nm, response 0.25 sec, data pitch 0.1 nm, scanning speed 20 nm/min, cell length 1 cm, accumulation 8 times, a temperature of 20° C. […] In order to easily confirm such a result, the graph as illustrated in FIG. 3 is used using the ratio of the signal value at a first day to the signal value at 200 nm that has the biggest difference of signals. Table. […] From such a result, it can be confirmed that the EGF mutants prepared in the present invention have excellent thermal stability and solubility.

[3] = Structure and thermal stability (Tm) by circular dichroism; type: physicochemical; details: 0.1 mg/ml; for Structure change: circular dichroism 190-250 nm, 20 mM sodium phosphate pH 5.5, 20° C., versus wild-type EGF; for Tm (melting temperature): circular dichroism, 20° C. to 95° C. at 1° C./min
Protocol: The structure and thermal stability of the purified EGF mutant were measured through a circular dichroism analysis using a J-810 spectrometer (JASCO). As the wild-type EGF, the purified EGF prepared in Example 2 was used. In order to analyze the structure, each EGF was dissolved in 20 mM sodium phosphate (pH 5.5) to be uniformly a final concentration of 0.1 mg/ml. And then, the dissolved EGF solution was added to 0.1 cm cell, and then its structure was analyzed under the conditions of, as 190 nm to 250 nm region, band width 1 nm, response 0.25 sec, data pitch 0.1 nm, scanning speed 20 nm/min, cell length 1 cm, accumulation 8 times, and a temperature of 20° C.
In order to analyze the thermal stability, a wavelength of 200 nm was determined through a comparison analysis of far-UV at the Tm (melting temperature) of 20° C. and 95° C., and progressed in a concentration of 0.1 mg/ml in 0.1 cm cell. As the conditions, it was measured at 20° C. to 95° C. under condition of 1° C./min.
The structure is changed at the band of about 195 nm when generating a folding-unfolding phenomenon. Using it, the melting temperature (Tm) was measured in the range of 20 to 95° C., and thus the accurate Tm value was analyzed. As a result, as for the structure change, most mutants had the similar structure as the wild-type EGF, and thus there were few changes. […] It can be confirmed that the thermal stabilities of M2 and M3 were improved by 87° C.

NIH3T3 cell line = test: Test of cell proliferation after incubation in cosmetic basic essence; type: cell-based; details: 60° C., 5 days, versus wild-type EGF, FIG. 4
Protocol: And then, the incubated samples were centrifuged to collect supernatants.

Row | Substance | Solubility [1] | Solubility (Comparison with wild-type %) [1] | Percentage to wild-type EGF (CD signal value at 200 nm) [2] | Structure change [3] | Tm (melting temperature) [3] | Cell proliferation activity after incubation (NIH3T3 cell line) | CD structure signal over time (in words) ([2]; 60° C., 20 mM sodium phosphate pH 5.5, sampling per 24 hours, compared with the mutants, FIG. 3) | Tm (melting temperature) ([3]; listed as Wide type EGF)
1 | C-25-1: EGF mutant, 25th alanine substituted with serine (SEQ ID NO: 72) (NSDSECPLSHDGYCLHDGVCMYIESLDKYACNCVVGYIGERCQYRDLKWWELR; not fully specified; Epidermal growth factor; UniProt P01133 971-1023, looked up, variant A25S) | 617.8 µg/mL | 122% | 106.38% | No change | (76° C.) |  |  | 
2 | D-35-6: EGF mutant, 35th valine substituted with glutamic acid (SEQ ID NO: 80) (CNCVEGYIGE) |  |  | 100.14% | No change | (76° C.) |  |  | 
3 | M3: EGF mutant by fusion of A-8-2, D-38-10, and E-46-2; SEQ ID NO:2 (NSDSECPSSHDGYCLHDGVCMYIEALDKYACNCVVGYCGERCQYRCLKWWELR; not fully specified) | 681.7 µg/mL | 134% |  | slightly changed; also recorded: Little change |  | higher cell proliferation activity |  | 
4 | Wild-type EGF: human epidermal growth factor, 53 amino acids, SEQ ID NO:1, produced in E. coli (Example 2) [reference compound] | 507.3 µg/mL | 100% | 100% |  | 76 °C |  | significantly decreased | (76° C.)
